Each block holds one molecule with its values, some of them ahead of it.
What was measured:
[1] = molecular target: full-length SPARC (SPARC_C1) and the SPARC FS-EC domains (SPARC_C2); assay: fluorescence polarisation
[2] = molecular target: rat NLGN2(+A) extracellular domain (Val43-His612, with splice insert SSA) (rat) (UniProt Q62888); assay: SPR
[3] = molecular target: T1, rat NLGN2(+A) extracellular domain (Val43-His612, with splice insert SSA) (rat, UniProt Q62888-1 43-612); assay: fluorescence polarisation
T1 sequence (Q62888 43-612): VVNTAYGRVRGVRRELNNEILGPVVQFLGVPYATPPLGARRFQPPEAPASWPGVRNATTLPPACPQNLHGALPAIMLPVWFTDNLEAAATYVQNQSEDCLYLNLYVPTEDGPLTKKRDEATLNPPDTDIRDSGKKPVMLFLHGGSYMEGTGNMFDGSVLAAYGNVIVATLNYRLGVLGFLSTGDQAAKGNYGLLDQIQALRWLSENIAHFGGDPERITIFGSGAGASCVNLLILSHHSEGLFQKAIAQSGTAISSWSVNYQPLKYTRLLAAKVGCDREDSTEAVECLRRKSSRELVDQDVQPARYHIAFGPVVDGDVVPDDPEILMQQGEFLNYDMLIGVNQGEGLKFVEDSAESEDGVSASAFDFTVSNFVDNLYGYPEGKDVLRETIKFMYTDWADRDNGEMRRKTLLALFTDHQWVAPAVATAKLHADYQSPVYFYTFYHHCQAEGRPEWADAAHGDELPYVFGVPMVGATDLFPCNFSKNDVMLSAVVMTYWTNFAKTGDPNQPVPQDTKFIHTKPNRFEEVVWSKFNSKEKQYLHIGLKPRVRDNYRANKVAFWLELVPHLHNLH

[4] = molecular target: T1, rat NLGN2(+A) extracellular domain …; assay: SPR

Sequence of rat NLGN2(+A) extracellular domain (Val43-His612, with splice insert SSA) (rat) (Q62888 43-612): as above

Molecule: rat NLGN2(+A) extracellular domain (Val43-His612, with splice insert SSA) (from UniProt Q62888-1 43-612) (domain or fragment)
Kd [1]: 37 to 96 nM

B1: human MDGA1 Ig1-Ig2 (MDGA1_C8, Y22-T237) (domain or fragment, UniProt Q8NFP4-1 22-237, looked up)
chain: YAPAQAQIVHAGQACVVKEDNISERVYTIREGDTLMLQCLVTGHPRPQVRWTKTAGSASDKFQETSVFNETLRIERIARTQGGRYYCKAENGVGVPAIKSIRVDVQYLDEPMLTVHQTVSDVRGNFYQEKTVFLRCTVNSNPPARFIWKRGSDTLSHSQDNGVDIYEPLYTQGETKVLKLKNLRPQDYASYTCQVSVRNVCGIPDKAITFRLTNTT
binding result [3]: binds

B2: MDGA1_C8 Mut4 (MDGA1 Ig1-Ig2 R105A, Y107A, R123A, F154A, R156A, Y187A) (domain or fragment, human, UniProt Q8NFP4-1 22-237, looked up)
chain: YAPAQAQIVHAGQACVVKEDNISERVYTIREGDTLMLQCLVTGHPRPQVRWTKTAGSASDKFQETSVFNETLRIERIARTQGGAYACKAENGVGVPAIKSIAVDVQYLDEPMLTVHQTVSDVRGNFYQEKTVALACTVNSNPPARFIWKRGSDTLSHSQDNGVDIAEPLYTQGETKVLKLKNLRPQDYASYTCQVSVRNVCGIPDKAITFRLTNTT
binding result [3]: binds

Continued, values first:

Kd [2]: 3.8 nM
Molecule: bovine neurexin 1α L1L6 (M1-S1339, without splice inserts) (domain or fragment)

binding result [4]: binds
B3: hevin_C4 (L302-F664) (domain or fragment, human, UniProt Q14515 302-664, looked up)
chain: LEAISNHKETEEKTVSEALLMEPTDDGNTTPRNHGVDDDGDDDGDDGGTDGPRHSASDDYFIPSQAFLEAERAQSIAYHLKIEEQREKVHENENIGTTEPGEHQEAKKAENSSNEEETSSEGNMRVHAVDSCMSFQCKRGHICKADQQGKPHCVCQDPVTCPPTKPLDQVCGTDNQTYASSCHLFATKCRLEGTKKGHQLQLDYFGACKSIPTCTDFEVIQFPLRMRDWLKNILMQLYEANSEHAGYLNEKQRNKVKKIYLDEKRLLAGDHPIDLLLRDFKKNYHMYVYPVHWQFSELDQHPMDRVLTHSELAPLRASLVPMEHCITRFFEECDPNKDKHITLKEWGHCFGIKEEDIDENLLF

Source: PMC8254758 (Structure (London, England : 1993), 2021)
